Reference: the Human Domainome abundance scans (Beltran et al. 2025)

B1: Triacylglycerol hydrolase DDHD2, residues 389 to 447; numbered along this chain, O94830 (parent)
chain: TLEEDLKKLQLSEFFDIFEKEKVDKEALALCTDRDLQEIGIPLGPRKKILNYFSTRKNS
B2: Probable E3 ubiquitin-protein ligase MID2, residues 191 to 235; numbered along this chain, Q9UJV3 (parent)
chain: RGITCLDHENEKVNMYCVSDDQLICALCKLVGRHRDHQVASLNDR

Variants of: B1
Experiment: abundance fitness (aPCA) (normalised: wild type 0, dead -1); higher = more abundant; growth selection in yeast, the domain comes from the species named
Conditions: Homo sapiens

Abundance fitness of substitutions, site by site:
F53: V -0.363; M 0.023; Y -0.027; W -0.38; S -0.237; K 0.031; T -0.247; D -0.03; R -0.323; Q -0.118; N -0.073; A -0.282; G -0.213; C -0.029; H -0.285; E 0.221; L -0.324; I -0.085
T55: Y -0.159; D -0.067; K 0.178; W -0.295; P -0.079; A 0.058; L -0.072; F -0.482; C 0.041; S -0.007; I 0.122; N 0.166; Q 0.006; G 0.007; V -0.152; E 0.214; H -0.146
K57: H -0.291; Y -0.244; L -0.219; V -0.175; Q -0.076; G -0.031; M 0.067; F -0.224; A -0.102; N -0.287; W -0.525; T -0.155; C -0.269; S -0.115; I -0.075
N58: H -0.377; P -0.199; V -0.015; M 0.208; Y -0.08; R -0.332; F -0.422; T -0.049; Q -0.236; A -0.193; W -0.373; C -0.252; L -0.116; E 0.078
S54: H -0.208; Q 0.055; Y -0.443; R -0.122; V -0.409; G -0.113; K -0.071; L -0.306; E -0.033; D -0.146; P -0.309; M 0.17; T -0.097; W -0.471; C -0.285; N -0.152; I -0.146
R56: A 0.134; T 0.033; V 0.035; Y 0.019; W -0.1; D 0.05; F -0.074; S -0.027; Q 0.143; P 0.084; C -0.065; E 0.123; N -0.236; L -0.086; G -0.105; H -0.207; M 0.095; K -0.143
Y52: S -0.15; N 0.151; E -0.075; R -0.237; P -0.313; Q 0.123; L -0.354; V -0.26; D -0.088; A -0.08; M -0.21; W -0.089; H 0.231; C -0.459; K -0.3; G -0.34; T -0.172; F 0.172; I -0.387
S59: R -0.352; H -0.056; M -0.068; T -0.085; G -0.151; A -0.235; Q -0.293; V -0.153; F 0.03; P -0.064; K -0.547; N -0.569; C -0.058; D 0.23; W -0.074; L -0.473; E 0.075; Y -0.109
N51: W -0.384; V -0.729; R 0.042; S 0.14; Y -0.475; L -0.185; T 0.119; K 0.044; M 0.084; P -0.37; Q 0.166

Variants of: B2
Experiment: as above
Conditions: Homo sapiens

Abundance fitness: each site, then its substitutions
N10: S -0.156; T -0.26; I -0.176; M -0.173; D -0.072; Q -0.313; H -0.036; L -0.102; R -0.138; C -0.175; A -0.348; K -0.226; F -0.577; E -0.55; V -0.416; P -0.414; G -0.198; W -0.394
G2: Q -0.181; C -0.511; P -0.222; A -0.135; V -0.216; L -0.218; S -0.069; M -0.081; K 0.042; W -0.403; I -0.522; D 0.108; T -0.06; E 0.115; Y 0.023; R -0.033
K12: Q -0.103; I -0.244; E 0.104; P 0.124; A -0.095; L -0.049; G -0.102; D -0.012; C -0.389
T4: L -0.376; W -0.219; F 0.001; S -0.105; R -0.205; H -0.071; I 0.032; E -0.209; G -0.217; Q -0.257; A -0.238; Y 0.133; N -0.01; V -0.235; D -0.16; C -0.18
I3: L -0.167; W -0.229; V -0.188; T 0.08; N 0.162; C -0.101; E 0.036; H -0.195; G 0.043; D 0.123; M 0.111; Y 0.072; Q -0.181; R -0.079; S -0.081
E11: I -0.334; M -0.174; Y 0.129; V -0.519; R -0.171; C -0.063; W -0.215; T -0.223; A -0.177; P -0.838; G -0.245; F -0.248; L -0.524; Q -0.097; S -0.236; K -0.33
C5: P -0.717; V -0.589; Q -0.585; W -0.706; F -0.951; D -0.39; H -0.555; S -0.448; L -0.985; G -0.461; K -0.379; E -0.307; M -0.462; N -0.487
D7: R -0.238; A -0.128; I -0.015; W -0.294; M -0.239; T -0.223; S -0.173; Q -0.147; L -0.162; V -0.17; H -0.015; N -0.107; G -0.364; P -0.55; C -0.192; F -0.082; Y -0.112
H8: D -0.335; V -0.809; F -0.808; M -0.588; T -0.555; L -0.703; K -0.533; Y -0.831; I -0.976; R -0.655; W -0.97; E -0.47; C -0.408; G -0.582
R1: H -0.081; Q 0.069; M -0.044; Y -0.807; N -0.017; G -0.04; L -0.194; W -0.502; A -0.158; D -0.079; S -0.187; T -0.118; V -0.195; I -0.17; K -0.211; F 0.127; E 0.019
L6: F -0.028; E 0.151; I 0.16; D 0.124; N -0.22; M 0.072; K 0.213; G 0.039; Y 0.064; R 0.103; W -0.253; Q 0.176; A 0.145; C 0.069; S 0.118; T 0.14; P 0.156; V 0.021
E9: T 0.151; V -0.299; Q 0.021; F 0.1; R -0.024; S -0.033; A 0.098; L 0.032; N 0.056; M 0.022; K 0.073; P 0.173; I -0.128; D 0.017; W -0.252; C 0.028; Y -0.051
